From the nanobody polyreactivity screen of Harvey et al. (2022)

Assay: yeast display, Sf9 membrane polyspecificity reagent, FACS + sequencing; frameworks hold sequencing errors
How it was run: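 Using colony PCR, genes from sorted yeast display clones were amplified, then sequenced on MiSeq at 2 × 250 and filtered by CDR length. The clones had been stained with 10% biotinylated, detergent-solubilized Sf9 membrane reagent for 1 hour at 4 °C and sorted by FACS into low and high (top ~1%) gates on anti-HA and streptavidin fluorescence. Polyreactivity labels come from the gate of origin.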

Row | Sequence | polyreactivity (PSR sort gate)
1 | QVQLVESGGGLVQAGGSLRLSCAASGSIFPGYAMGWYRQAPGKERELVAGITWSDARTYYADSVKGLFTISRDNAKNTVYLQMNSLKPEDTAVYYCAADYYYYERDYWGQGTQVTVSS | low polyreactivity
2 | QVQLVESGGGLVQAGGSLRLSCAASGSIFPIYAMGWSRQPPGKESELVAPISRGGSTNYADSVKGRFTISRDNAKNTVYLQMNSLKPEDTAVYYCAAQSRVFSTWGSTGEYYYWGQGTQVTVSS | low polyreactivity
3 | QVQLVESGGGLVQAGGSLRLSCAASGSIFPKYAMGWYRQAPGKERELVAGISRSGGITHYADSVKGRFTISRDNAKNTVYLQMNSLKPEDTAVYYCAALWARALSYYYWGQGTQVTVSS | high polyreactivity
4 | QVQLVESGGGLVQAGGSLRLSCAASGSIFPQNAMAWYRQAPGKERELVASISSGGRTNYADSVKGRFTISRDNAKNTVYLQMNSLKPEDTAVYYCNARYRGYYGPKTHGVTYYYWGQGTQVTVSS | low polyreactivity
5 | QVQLVESGGGLVQAGGSLRLSCAASGSIFPRYAMGWYRQAPGKERELVAGITSGGITYYADSVKGRFTISRDNAKNTVYLQLNSLKPEDTAVYYCAAVYYLVPGNYWGQGTQVTVSS | high polyreactivity
6 | QVQLVESGGGLVQAGGSLRLSCAASGSIFPSYAIGWYRQAPGKERELVATIGRGGTTNYADSVKGRFTISRDNAKNTVYLQMNSLKPEDTSVYYCNAERIWRYKYGYDYWGQGTQVTVSS | high polyreactivity
7 | QVQLVESGGGLVQAGGSLRLSCAASGSIFPSYAMGWFRQAPRKERELVAAISRSAGSTYYADSVKGRFTISRDNAKNTVYLQMNSLKPEDTAVYYCAADGYSSRYRFDYWGQGTQVTVSS | low polyreactivity
8 | QVQLVESGGGLVQAGGSLRLSCAASGSIFPSYAMGWYRPAPGTERELVAAISVSGGRTSYADSVKGRFTISRDNAKNTVYLQMNSLKPEDTAVYYCAVRSWSGYGLYNYWAQGTQVTVSS | high polyreactivity
9 | QVQLVESGGGLVQAGGSLRLSCAASGSIFPSYAMGWYRQAPGKERELVAAISRSAGSTYYADSVKGRFTISRDNAKNTVYLQMNSLKPEDTAVYYCAAEGYSSRYRYDYWGQGTQVTVSS | low polyreactivity
10 | QVQLVESGGGLVQAGGSLRLSCAASGSIFPSYARGWYRQAPGKERELVAAINWDGGSTFYADSVKGRFTISRDNAKNTVSLQMNSLKPEDTAVYYCAAPDNYGGVGGITFWRMDYWGQGTQVTVSS | low polyreactivity
11 | QVQLVESGGGLVQAGGSLRLSCAASGSIFPTNAMGWYRQAPGKERELVAAITSTAGSTYYADSVKGRFTISRDNAKNSVYLQMNSLKPEDTAVYYCAATYKVGVKSWYDYWGQGTQVTVSS | high polyreactivity
12 | QVQLVESGGGLVQAGGSLRLSCAASGSIFPTYAMGWYRQAPGKERELVAAIRSGSNTYYADSLKGRFTISRDNAKNTDYLQMNCLKPEDTAVYYCNVGPQRKYPGRRTVPFGYWGQGTQVTVSS | low polyreactivity
13 | QVQLVESGGGLVQAGGSLRLSCAASGSIFPVYAMGWYRQAPGKERELVAAISSRGGRTYYADSVKGRFTISRDNAKNTVYLQMNSLKPEDTAVYYCAAVPYPSYYDTGYDYWGQGTQVTVSS | low polyreactivity
14 | QVQLVESGGGLVQAGGSLRLSCAASGSIFPVYAMGWYRQAPGKERELVATITGSGDSTYADSVKGRFTISRDNAKNTVYLQMNSLKPEDTAVYYCAATTDRAEDDDNIGGYWGQGTQVTVSS | low polyreactivity
15 | QVQLVESGGGLVQAGGSLRLSCAASGSIFPVYAMGWYRQSPGKERELVADITYTTGSTYYADSVKGRFTISRDNAKNTVYLQMNSLKPEDSAVYYCAKDFGFQSDSWGQGTQVTVSS | low polyreactivity
16 | QVQLVESGGGLVQAGGSLRLSCAASGSIFPVYTMGWYRQAPGKERELVADIDSGGSTNYADSVKGRFTISRDNAKNTVYLQMNSLKPEVTAVYDCAADYYYYFYSLYIDPYAFDYWGLGTQVTVSS | low polyreactivity
17 | QVQLVESGGGLVQAGGSLRLSCAASGSIFPWYAMGWYRQAPGKERELVAAITISGGSTHYADSEKGRFTISRDTAKNTVYLQLKSLKPEDTAVYYCAADFLPQSYNCYDYWGQGTQVTVSS | low polyreactivity
18 | QVQLVESGGGLVQAGGSLRLSCAASGSIFPWYTMGWYRQAPGKEREFVASISSSASDTYYADSVKGRFTISRDNAKNTVYLQMNSLKPEDTAVYYCAARAYYRYWHGNYRHYSFDYWGQGTQVTVSS | high polyreactivity
19 | QVQLVESGGGLVQAGGSLRLSCAASGSIFPWYVMGWYRQAPGKERELVAAISWNGGITYADSVKGRFTISRDNAKNTVYLQMNSLKPEDTGVYYCAAYYITYSYIEYDYWGQGTQVSVSS | high polyreactivity
20 | QVQLVESGGGLVQAGGSLRLSCAASGSIFPYNAMGWYRQAPGKERELVAAIRFGGGSTYYSDSVKGRFTISRDNAKNTVYLQMNSLKPEDTAVYYCAAQVLQSAYLPFRFGYYYWGLGTQVTVSS | low polyreactivity
21 | QVQLVESGGGLVQAGGSLRLSCAASGSIFPYNAMGWYRQAPGKERELVAAITQSGGSTYYADSVKGRFTISRDNAKNTVYLQMNSLQPEDTAVYYCAADDYGPEGDYWGQGTQVTVSS | low polyreactivity
22 | QVQLVESGGGLVQAGGSLRLSCAASGSIFPYNDMGWYRQAPGKERELVAAISDSAGSTYYADSVKGRFTISRDNAKNTVYLQMNSLKPEDTAVYYCAADSWDSQVVSYEYWGQGTQVTVSS | low polyreactivity

Row | Sequence | polyreactivity (PSR sort gate)
23 | QVQLVESGGGLVQAGGSLRLSCAASGSIFPYNVMGWYRPAPGQERELVAANTTGGRTNYADSVKGRFTISRDNAKNTVYLQMNSLKPEDTAVYYCAARYGYYDSRRWYYYSGQGTQVTVSS | high polyreactivity
24 | QVQLVESGGGLVQAGGSLRLSCAASGSIFPYNVMGWYRQAPGKERELVAAISTRGGRTYYADSVKGRFTISRDNAKNTVYLQMNSLNPEDTAVYYCATAGGPYSASGYYWGQGTKVTVSS | high polyreactivity
25 | QVQLVESGGGLVQAGGSLRLSCAASGSIFPYNVMGWYRQAPGKERELVAAITRRGGSTYYADSVKGRFTISRDNAKNTVYLQMNSLKPEDTAVYYCAAVPYPRGKGYDYWGQGTQVTVSS | high polyreactivity
26 | QVQLVESGGGLVQAGGSLRLSCAASGSIFPYYAMGWYRPAPGKERELVAGITSGTRTNYADSVKGRFTISRDNAKNTVYLQMNSLKPEDTAVYYCAAYYRAYRRDYYWGQGTQVTVSS | high polyreactivity
27 | QVQLVESGGGLVQAGGSLRLSCAASGSIFQDYTMGWYRQAPGKDRELVAAITDNGGSTYYADSVKGRFTISRDNAKNTVYLQMNSLKPEDTAVYYCAKDWDYSAPGYYLYGYWGQGTQVTVSS | low polyreactivity
28 | QVQLVESGGGLVQAGGSLRLSCAASGSIFQFSAKGWYRQAPGKERELVAGINTSGGSTYYADSVKGRFTISRDNAKNTVYLQMHSLKPEDTAVYYCMARSRYDTGPQRGYDYWGQGTQVTVSS | low polyreactivity
29 | QVQLVESGGGLVQAGGSLRLSCAASGSIFQFYTMGWYRQAPGKERELVAAISSTGSTNYADSVKGRFTISRDNAKNTVYLQMNSLKPEDTAVYYCAAVGTYLAGYQFDYWGQGTQVTVSS | low polyreactivity
30 | QVQLVESGGGLVQAGGSLRLSCAASGSIFQGNAMGWYRQAPGKERELVAAISSRGGTTYYADSVKGRFTISRDNAKNTVYLQMNSLKPEDTAVYYCARDSGYYWYYRYGYWGQGTQVTVSS | high polyreactivity
31 | QVQLVESGGGLVQAGGSLRLSCAASGSIFQGYAMGWYRQAPGKERELVAAITSSGGSTYYADSVKGRFTISRDNAKNTVYLQMNSLKPEDTAVYYCAARGYSHVASRLYYYWGQGTQVTVSS | high polyreactivity
32 | QVQLVESGGGLVQAGGSLRLSCAASGSIFQGYAMGWYRQAPGKERELVAVITSRVGRTYYADSVKGRFTISRDNAKNTVYLQMNSLKPEDTAVYYCAAKLYGGWYRDFAASGMDYWGQGTQVTVSS | high polyreactivity
33 | QVQLVESGGGLVQAGGSLRLSCAASGSIFQIYAMGWYRQAPGKERELVATISSGGRTTYADSVKGRFTISRDNAKNSVYLQMNSLKPEDTAVYYCAAKLEWLSHYYYWGQGTQVTVSS | low polyreactivity
34 | QVQLVESGGGLVQAGGSLRLSCAASGSIFQKYAMGWYRPAPGKERELVAAISSGGGRTYYADSVKGRFTISRDNAKNTVYLQMNSLKPEDTAVYYCAARGSYTSIFDYWGQGTQVTVSS | high polyreactivity
35 | QVQLVESGGGLVQAGGSLRLSCAASGSIFQLNAMGWYRQAPGKERELVAAITWSGDSTYYADSVKGRFTISRDNAKNTVSLQMNSRKPEDTAVYYCAADVLTTPPPREFEYWGQGTQVTVSS | high polyreactivity
36 | QVQLVESGGGLVQAGGSLRLSCAASGSIFQPNMGWYRQAPGKERELVASITTGTTKYADSVKGRFTISRDNAKNTVYLQMNSLKPEDTAVYYCAADLQATVYLIFGYWGQGTQVTVSS | low polyreactivity
37 | QVQLVESGGGLVQAGGSLRLSCAASGSIFQPYAMGWYRQAPGKEWELVAAISRGGTTYYADSVKGRFTISRDNAKNTVYLQMNSLNPEDTAVYYCAVKGYRYVTRYDYWGQGTQVTVSS | high polyreactivity
38 | QVQLVESGGGLVQAGGSLRLSCAASGSIFQRNAMGWYRQAPGKERELVAAISWSGGSTYYADSVKGRFTISRDNAKNSVSLQMNSVKPEDTAVYYCARYYRPYDWGQGTQVTVSS | high polyreactivity
39 | QVQLVESGGGLVQAGGSLRLSCAASGSIFQSYAKGWYRQAPGKERELVAAISRGGSTYYADSVKGRFTISRDNAKNTVYLQMNSLKPEDTAVYYCAAGSGGGKYLYYYWGQGTQVTVSS | low polyreactivity
40 | QVQLVESGGGLVQAGGSLRLSCAASGSIFQSYAMGWYRQAPGKERELVAAISYSGDGTFYADSVKGRFTISRDNAKNTVYLQMNSLKPEDTAVYYCAASSTGYGGSTYYYWGQGTQVTVSS | low polyreactivity
41 | QVQLVESGGGLVQAGGSLRLSCAASGSIFQYNAMGWYRQAPGKRELVAAINRSGGSTYYADSVKGRFTISRDYAKNTVYLQMNSLKPEDTAVYYCAAVRYDRARGSPYPDRVGVYSWGQGTQVTVSS | high polyreactivity
42 | QVQLVESGGGLVQAGGSLRLSCAASGSIFQYNDMGWYRQQPGKEREFVADISSSGGSTYYADSVKGRFTISRDTAKNTVYLQMNSLKPEDTEVYYCNADPGYDFYRDEYWGQGTQVTVSS | low polyreactivity
43 | QVQLVESGGGLVQAGGSLRLSCAASGSIFQYTMGWYRQAPVKEMELVAAITRSGSSTYYADSVKGRFTISRDNAKNTVYLQMNSLKPEDTAVYYCAHNIRRVLGYGSWGQGTQVTVSS | high polyreactivity
